B1: VHH Z70 mutant 3 (R47K), Gal4 activation domain fusion prey (VHH)
VHH: EVQLQASGGVFVQSGGSLRLSCAASGATSTFDGMGWFRQAPGKEKEFVSAISYEQGSYTYYADSVKGRFTISRDNSKNMVYLQMNSLRAEDTATYYCAPAYEGDLYAFDSYGGQGTQVTVSS
B2: VHH Z70 mutant 15 (R90G + P101S + G114E) (VHH)
VHH: EVQLQASGGVFVQSGGSLRLSCAASGATSTFDGMGWFRQAPGKEREFVSAISYEQGSYTYYADSVKGRFTISRDNSKNMVYLQMNSLGAEDTATYYCASAYEGDLYAFDSYEGQGTQVTVSS
B3: VHH Z70 mutant 3 (R47K) (VHH)
VHH: EVQLQASGGVFVQSGGSLRLSCAASGATSTFDGMGWFRQAPGKEKEFVSAISYEQGSYTYYADSVKGRFTISRDNSKNMVYLQMNSLRAEDTATYYCAPAYEGDLYAFDSYGGQGTQVTVSS
B4: VHH Z70 mutant 15 (R90G + P101S + G114E), Gal4 activation domain fusion prey (VHH)
VHH: EVQLQASGGVFVQSGGSLRLSCAASGATSTFDGMGWFRQAPGKEREFVSAISYEQGSYTYYADSVKGRFTISRDNSKNMVYLQMNSLGAEDTATYYCASAYEGDLYAFDSYEGQGTQVTVSS
B5: VHH Z70 mutant 5 (T96S) (VHH)
VHH: EVQLQASGGVFVQSGGSLRLSCAASGATSTFDGMGWFRQAPGKEREFVSAISYEQGSYTYYADSVKGRFTISRDNSKNMVYLQMNSLRAEDTASYYCAPAYEGDLYAFDSYGGQGTQVTVSS
B6: VHH Z70 mutant 14, Gal4 activation domain fusion prey (VHH)
VHH: EVQLQASGGVFVQSGGSLRLSCAASGATSIFDGMGWFRQAPGKEREFVSAISYGQGSYTYYADSVKGRFTISRDNSKNMVYLQMNSLRAEDTATYYCAPAYEGDLYAFDSYGEQGTQVTVSS
B7: VHH Z70 mutant 1 (G115E) (VHH)
VHH: EVQLQASGGVFVQSGGSLRLSCAASGATSTFDGMGWFRQAPGKEREFVSAISYEQGSYTYYADSVKGRFTISRDNSKNMVYLQMNSLRAEDTATYYCAPAYEGDLYAFDSYGEQGTQVTVSS
B8: VHH Z70 mutant 5 (T96S), Gal4 activation domain fusion prey (VHH)
VHH: EVQLQASGGVFVQSGGSLRLSCAASGATSTFDGMGWFRQAPGKEREFVSAISYEQGSYTYYADSVKGRFTISRDNSKNMVYLQMNSLRAEDTASYYCAPAYEGDLYAFDSYGGQGTQVTVSS
B9: TAMRA-labelled VHH Z70 mutant 3 (R47K) with a terminal cysteine (VHH)
VHH: EVQLQASGGVFVQSGGSLRLSCAASGATSTFDGMGWFRQAPGKEKEFVSAISYEQGSYTYYADSVKGRFTISRDNSKNMVYLQMNSLRAEDTATYYCAPAYEGDLYAFDSYGGQGTQVTVSS
B10: VHH Z70 mutant 9 (P101S + G115E) (VHH)
VHH: EVQLQASGGVFVQSGGSLRLSCAASGATSTFDGMGWFRQAPGKEREFVSAISYEQGSYTYYADSVKGRFTISRDNSKNMVYLQMNSLRAEDTATYYCASAYEGDLYAFDSYGEQGTQVTVSS
B11: VHH Z70 mutant 12 (S23C + G115E) (VHH)
VHH: EVQLQASGGVFVQSGGSLRLCCAASGATSTFDGMGWFRQAPGKEREFVSAISYEQGSYTYYADSVKGRFTISRDNSKNMVYLQMNSLRAEDTATYYCAPAYEGDLYAFDSYGEQGTQVTVSS
B12: VHH Z70 mutant 12 (S23C + G115E), Gal4 activation domain fusion prey (VHH)
VHH: EVQLQASGGVFVQSGGSLRLCCAASGATSTFDGMGWFRQAPGKEREFVSAISYEQGSYTYYADSVKGRFTISRDNSKNMVYLQMNSLRAEDTATYYCAPAYEGDLYAFDSYGEQGTQVTVSS
B13: TAMRA-labelled VHH Z70 mutant 20 (double mutation R47K + G115E) with a terminal cysteine (VHH)
VHH: EVQLQASGGVFVQSGGSLRLSCAASGATSTFDGMGWFRQAPGKEKEFVSAISYEQGSYTYYADSVKGRFTISRDNSKNMVYLQMNSLRAEDTATYYCAPAYEGDLYAFDSYGEQGTQVTVSS
B14: VHH Z70 mutant 9 (P101S + G115E), Gal4 activation domain fusion prey (VHH)
VHH: EVQLQASGGVFVQSGGSLRLSCAASGATSTFDGMGWFRQAPGKEREFVSAISYEQGSYTYYADSVKGRFTISRDNSKNMVYLQMNSLRAEDTATYYCASAYEGDLYAFDSYGEQGTQVTVSS
B15: VHH Z70 mutant 14 (VHH)
VHH: EVQLQASGGVFVQSGGSLRLSCAASGATSIFDGMGWFRQAPGKEREFVSAISYGQGSYTYYADSVKGRFTISRDNSKNMVYLQMNSLRAEDTATYYCAPAYEGDLYAFDSYGEQGTQVTVSS
B16: VHH Z70 mutant 20 (R47K + G115E) (VHH)
VHH: EVQLQASGGVFVQSGGSLRLSCAASGATSTFDGMGWFRQAPGKEKEFVSAISYEQGSYTYYADSVKGRFTISRDNSKNMVYLQMNSLRAEDTATYYCAPAYEGDLYAFDSYGEQGTQVTVSS

Assays:
[1] = target: Tau-LexA (Tau variant 0N4R isoform with a C-terminal LexA fusion) (Homo sapiens, UniProt P10636-6); experiment: two-hybrid
[2] = target: Biotinylated Tau 2N4R (Homo sapiens, UniProt P10636-8, biotin (NHS-biotin conjugates, 5 molar excess; sites not stated)); experiment: SPR
[3] = target: Tau 2N4R (recombinant; 15N-labelled for NMR) (Homo sapiens, UniProt P10636-8); experiment: NMR titration
[4] = target: Tau (on the Western blot membrane) (Homo sapiens, UniProt P10636); experiment: far-Western, overlay or dot blot

Binder	binding result [1]	binding result [2]	binding result [3]	other results
B1	binds	–	–	–
B2	–	binds	–	–
B3	–	binds	binds	–
B4	binds	–	–	–
B5	–	binds	binds	–
B6	binds	–	–	–
B7	–	–	–	Kd [2]: 23 nM
B8	binds	–	–	–
B9	–	–	–	binding result [4]: binds
B10	–	binds	binds	–
B11	–	binds	binds	–
B12	binds	–	–	–
B13	–	–	–	binding result [4]: binds
B14	binds	–	–	–
B15	–	binds	binds	–
B16	–	binds	binds	–

From paper doi:10.1101/2023.07.18.549252 (bioRxiv, 2023)
